Measurements taken from EP0730609B1.

Biological target: IL4 receptor on the gibbon cell line MLA (gibbon)
Assay: displacement of 125I-IL4 (83 pM added) from gibbon MLA cells

IC50: 0.022 nM
Substance: recombinant human IL4 (E. coli, non-glycosylated) (from UniProt P05112 25-153) (ligand)
